The subject of this series is C=C(OP(=O)(O)O)C(=O)O. Nature of the series: anti-pHis dot-blot assay of autophosphorylation velocity. Format: biochemical, Escherichia coli. As to conditions: phosphoryl donor; n = 3.

The term Km denotes the concentration of substrate that gives half-maximal velocity.

With enzyme I (PtsI) (Escherichia coli K-12), the Michaelis constant (Km) came out at 135 ± 30 µM.
